Literature values in paper doi:10.1101/2023.08.17.553741.

Target: SARS-CoV-2 spike protein (target of cited Kd) (SARS-CoV-2) (UniProt P0DTC2)
Conditions: 3' thiol C3, […] (temperature not stated), PBS 1X

## TTCCGGTTAATTTATGCTCTACCCGTCCACCTACCGGAATTTTTTTTTTTTTTTTTTTTACGGGTTTGGCGTCGGGCCTGGCGGGGGGATAGTGCGGT [dimeric aptamer (S1-20T-S2-thiolC3)]
  Kd: 0.17 nM
